Test results as given in patent US20150258192A1, “COMPOSITIONS AND METHODS FOR PREVENTING OR TREATING CHRONIC LUNG ALLOGRAFT DYSFUNCTION (CLAD) AND IDIOPATHIC PULMONARY FIBROSIS (IPF)” (priority 2014, published 2015).
No end group written: not given here.

Tests used:
Assay in all cases: Kinase Profiling Assay
Format in all cases: biochemical
Settings in all cases: peptide 100 μM
LIMK1(h) = molecular target: T1, LIMK1(h) (Homo sapiens, UniProt P53667)
T1 construct: purchased Millipore
Summary of the method: (§1)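 Kinase inhibition by MK2 inhibitory peptides was profiled radiometrically, with substrate phosphorylation from labeled ATP read by scintillation after capture on a charged filter. Values are relative to 100% activity and measured in duplicate.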

EphA1(h) = molecular target: T2, EphA1(h) (Homo sapiens, UniProt P21709)
T2 sequence (P21709 26-976): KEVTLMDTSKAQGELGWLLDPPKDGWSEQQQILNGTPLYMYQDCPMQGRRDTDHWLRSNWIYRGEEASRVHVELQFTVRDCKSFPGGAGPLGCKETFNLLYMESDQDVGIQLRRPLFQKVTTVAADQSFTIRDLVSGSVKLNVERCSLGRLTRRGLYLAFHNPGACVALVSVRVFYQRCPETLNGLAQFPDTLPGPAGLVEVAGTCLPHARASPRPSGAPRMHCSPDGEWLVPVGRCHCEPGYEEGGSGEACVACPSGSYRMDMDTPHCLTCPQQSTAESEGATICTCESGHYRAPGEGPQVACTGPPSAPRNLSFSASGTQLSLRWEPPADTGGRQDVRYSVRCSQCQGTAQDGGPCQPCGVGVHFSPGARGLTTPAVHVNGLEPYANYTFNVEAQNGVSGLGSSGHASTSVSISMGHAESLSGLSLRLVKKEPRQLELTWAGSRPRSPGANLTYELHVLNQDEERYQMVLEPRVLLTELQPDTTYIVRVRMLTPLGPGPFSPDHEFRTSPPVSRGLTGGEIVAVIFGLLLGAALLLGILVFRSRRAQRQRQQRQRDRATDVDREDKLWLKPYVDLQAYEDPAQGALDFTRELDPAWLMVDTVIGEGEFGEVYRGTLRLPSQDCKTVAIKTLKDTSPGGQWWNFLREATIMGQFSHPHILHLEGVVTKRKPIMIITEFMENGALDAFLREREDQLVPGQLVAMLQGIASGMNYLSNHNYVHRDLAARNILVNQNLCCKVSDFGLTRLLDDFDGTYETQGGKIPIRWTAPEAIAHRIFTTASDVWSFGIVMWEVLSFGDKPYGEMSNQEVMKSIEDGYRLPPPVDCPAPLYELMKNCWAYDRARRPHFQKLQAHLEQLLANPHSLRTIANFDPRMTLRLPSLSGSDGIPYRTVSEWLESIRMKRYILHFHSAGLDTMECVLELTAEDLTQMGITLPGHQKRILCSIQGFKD
Summary of the method: as §1

MSK1(h) = molecular target: T3, MSK1(h) (Homo sapiens, UniProt O75582)
T3 construct: purchased Millipore
Summary of the method: as §1

EphA4(h) = EphA4(h) (Homo sapiens, UniProt P54764)
Summary of the method: as §1

PKCα(h) = PKCα(h) (Homo sapiens, UniProt P17252)
Summary of the method: as §1

CSK(h) = CSK(h) (Homo sapiens, UniProt P41240)
Summary of the method: as §1

AMPKα2(h) = AMPKα2(h) (Homo sapiens, UniProt P54646)
Summary of the method: as §1

PKCδ(h) = PKCδ(h) (Homo sapiens, UniProt Q05655)
Summary of the method: as §1

Src(1-530)(h) = molecular target: T4, Src(1-530)(h) (Homo sapiens, UniProt P12931)
T4 construct: Src(1-530)(h); purchased Millipore
Summary of the method: as §1

PKBγ(h) = PKBγ(h) (Homo sapiens, UniProt Q9Y243)
Summary of the method: as §1

PDGFRα(V561D)(h) = PDGFRα(V561D)(h) (Homo sapiens, UniProt P16234, V561D)
Summary of the method: as §1

CDK2/cyclinA(h) = CDK2/cyclinA(h) (Homo sapiens, UniProt P24941)
Summary of the method: as §1

EGFR(T790M, L858R)(h) = EGFR(T790M, L858R)(h) (Homo sapiens, UniProt P00533, L858R/T790M)
Summary of the method: as §1

WNK3(h) = WNK3(h) (Homo sapiens, UniProt Q9BYP7)
Summary of the method: as §1

NEK2(h) = molecular target: T5, NEK2(h) (Homo sapiens, UniProt P51955)
T5 construct: purchased Millipore
T5 sequence (P51955 1-445): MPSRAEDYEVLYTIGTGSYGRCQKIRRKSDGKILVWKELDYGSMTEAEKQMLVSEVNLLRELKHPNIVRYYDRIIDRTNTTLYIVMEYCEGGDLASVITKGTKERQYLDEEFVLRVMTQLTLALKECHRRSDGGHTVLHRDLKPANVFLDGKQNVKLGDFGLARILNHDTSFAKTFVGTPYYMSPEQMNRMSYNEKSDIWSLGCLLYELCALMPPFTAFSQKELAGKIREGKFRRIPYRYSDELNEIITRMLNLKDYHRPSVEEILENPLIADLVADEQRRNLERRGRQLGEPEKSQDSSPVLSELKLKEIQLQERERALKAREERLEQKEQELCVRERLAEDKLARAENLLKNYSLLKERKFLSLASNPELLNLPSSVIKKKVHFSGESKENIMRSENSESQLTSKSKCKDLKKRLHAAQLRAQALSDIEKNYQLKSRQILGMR
Summary of the method: as §1

PAK5(h) = PAK5(h) (Homo sapiens, UniProt Q9P286)
Summary of the method: as §1

IRR(h) = molecular target: T6, IRR(h) (Homo sapiens, UniProt P14616)
T6 construct: purchased Millipore
Summary of the method: as §1

Flt3(D835Y)(h) = Flt3(D835Y)(h) (Homo sapiens, UniProt P36888, D835Y)
Summary of the method: as §1

Fgr(h) = Fgr(h) (Homo sapiens, UniProt P09769)
Summary of the method: as §1

Sequence of PDGFRα(V561D)(h) (P16234 24-1089 V561D): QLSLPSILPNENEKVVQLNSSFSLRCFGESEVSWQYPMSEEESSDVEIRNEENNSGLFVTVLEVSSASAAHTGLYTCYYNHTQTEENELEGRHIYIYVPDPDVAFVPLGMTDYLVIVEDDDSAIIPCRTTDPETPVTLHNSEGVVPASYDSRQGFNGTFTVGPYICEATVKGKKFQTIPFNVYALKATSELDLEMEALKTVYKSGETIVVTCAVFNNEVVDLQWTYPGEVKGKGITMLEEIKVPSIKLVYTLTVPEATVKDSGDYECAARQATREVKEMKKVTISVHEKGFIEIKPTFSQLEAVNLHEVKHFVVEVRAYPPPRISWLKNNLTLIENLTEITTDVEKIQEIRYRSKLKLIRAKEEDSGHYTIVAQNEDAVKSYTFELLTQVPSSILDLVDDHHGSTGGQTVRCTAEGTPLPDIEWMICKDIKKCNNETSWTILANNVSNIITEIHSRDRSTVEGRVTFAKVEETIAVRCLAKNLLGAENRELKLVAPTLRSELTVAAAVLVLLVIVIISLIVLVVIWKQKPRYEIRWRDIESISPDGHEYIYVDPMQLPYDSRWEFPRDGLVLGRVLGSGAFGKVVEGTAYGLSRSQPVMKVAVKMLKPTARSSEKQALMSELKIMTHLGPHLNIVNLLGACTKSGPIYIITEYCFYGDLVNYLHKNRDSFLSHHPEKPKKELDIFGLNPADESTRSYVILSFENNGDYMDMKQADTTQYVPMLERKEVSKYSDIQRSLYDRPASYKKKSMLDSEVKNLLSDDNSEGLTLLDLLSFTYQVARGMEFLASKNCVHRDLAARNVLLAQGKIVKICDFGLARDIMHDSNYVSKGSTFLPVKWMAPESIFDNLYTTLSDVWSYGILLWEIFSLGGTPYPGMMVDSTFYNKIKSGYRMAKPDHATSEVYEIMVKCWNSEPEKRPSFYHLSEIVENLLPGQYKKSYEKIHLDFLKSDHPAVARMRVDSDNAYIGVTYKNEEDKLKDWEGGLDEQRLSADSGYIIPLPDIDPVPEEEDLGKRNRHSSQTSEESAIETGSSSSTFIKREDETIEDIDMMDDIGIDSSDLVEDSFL
Sequence of AMPKα2(h) (P54646 whole entry): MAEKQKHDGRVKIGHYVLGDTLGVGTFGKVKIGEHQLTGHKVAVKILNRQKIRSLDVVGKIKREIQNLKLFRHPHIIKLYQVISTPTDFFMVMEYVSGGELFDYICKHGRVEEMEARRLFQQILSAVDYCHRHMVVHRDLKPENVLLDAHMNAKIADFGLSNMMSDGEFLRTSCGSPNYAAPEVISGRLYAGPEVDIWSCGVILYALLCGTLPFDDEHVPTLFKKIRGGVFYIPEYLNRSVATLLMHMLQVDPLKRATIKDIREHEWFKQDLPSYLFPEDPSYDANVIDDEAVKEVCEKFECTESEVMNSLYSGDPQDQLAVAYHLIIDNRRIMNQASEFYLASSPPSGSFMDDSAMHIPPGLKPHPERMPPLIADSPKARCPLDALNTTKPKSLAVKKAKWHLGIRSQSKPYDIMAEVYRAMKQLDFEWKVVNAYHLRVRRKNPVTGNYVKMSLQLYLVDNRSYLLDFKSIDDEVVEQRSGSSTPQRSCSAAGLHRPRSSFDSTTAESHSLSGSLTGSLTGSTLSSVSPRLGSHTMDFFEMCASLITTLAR
Sequence of AMPKα2(h) (Q9Y478 whole entry partner): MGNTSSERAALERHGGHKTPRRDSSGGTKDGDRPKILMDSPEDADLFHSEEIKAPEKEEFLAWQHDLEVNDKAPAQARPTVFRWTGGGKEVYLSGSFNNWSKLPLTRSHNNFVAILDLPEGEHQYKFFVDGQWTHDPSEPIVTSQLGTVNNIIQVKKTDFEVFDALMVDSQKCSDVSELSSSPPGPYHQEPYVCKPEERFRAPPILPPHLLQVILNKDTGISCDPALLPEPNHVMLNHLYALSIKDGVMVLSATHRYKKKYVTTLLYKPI
Sequence of AMPKα2(h) (P54619 whole entry partner): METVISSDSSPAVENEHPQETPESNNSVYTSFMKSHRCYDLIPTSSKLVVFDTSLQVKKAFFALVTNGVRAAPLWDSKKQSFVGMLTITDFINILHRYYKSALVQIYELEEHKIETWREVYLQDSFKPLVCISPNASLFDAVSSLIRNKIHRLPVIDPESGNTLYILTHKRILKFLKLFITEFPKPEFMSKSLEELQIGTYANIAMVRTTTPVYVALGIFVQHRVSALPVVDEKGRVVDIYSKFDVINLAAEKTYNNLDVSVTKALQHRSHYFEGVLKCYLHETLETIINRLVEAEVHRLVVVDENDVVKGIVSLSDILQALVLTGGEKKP
T3 sequence (O75582 whole entry): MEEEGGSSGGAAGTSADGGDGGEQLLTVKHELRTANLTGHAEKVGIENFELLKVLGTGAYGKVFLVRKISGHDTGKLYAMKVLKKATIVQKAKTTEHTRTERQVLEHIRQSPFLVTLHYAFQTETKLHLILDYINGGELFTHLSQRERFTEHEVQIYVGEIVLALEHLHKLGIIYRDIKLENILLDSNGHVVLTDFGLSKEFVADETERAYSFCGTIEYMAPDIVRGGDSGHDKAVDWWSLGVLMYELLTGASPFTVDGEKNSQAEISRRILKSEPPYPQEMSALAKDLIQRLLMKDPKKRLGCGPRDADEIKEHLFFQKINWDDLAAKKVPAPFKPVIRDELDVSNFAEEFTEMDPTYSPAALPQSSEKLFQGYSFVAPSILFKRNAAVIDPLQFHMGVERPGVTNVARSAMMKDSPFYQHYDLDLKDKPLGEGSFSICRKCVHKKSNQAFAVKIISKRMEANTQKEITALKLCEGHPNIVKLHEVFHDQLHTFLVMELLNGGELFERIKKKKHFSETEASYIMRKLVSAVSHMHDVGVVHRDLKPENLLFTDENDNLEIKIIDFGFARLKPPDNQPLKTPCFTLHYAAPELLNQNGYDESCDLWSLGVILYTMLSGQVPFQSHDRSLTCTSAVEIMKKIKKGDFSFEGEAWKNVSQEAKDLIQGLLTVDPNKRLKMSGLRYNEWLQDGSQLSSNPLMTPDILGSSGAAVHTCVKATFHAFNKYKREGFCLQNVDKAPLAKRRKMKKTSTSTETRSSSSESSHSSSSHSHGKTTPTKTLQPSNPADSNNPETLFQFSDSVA
Sequence of WNK3(h) (Q9BYP7 whole entry): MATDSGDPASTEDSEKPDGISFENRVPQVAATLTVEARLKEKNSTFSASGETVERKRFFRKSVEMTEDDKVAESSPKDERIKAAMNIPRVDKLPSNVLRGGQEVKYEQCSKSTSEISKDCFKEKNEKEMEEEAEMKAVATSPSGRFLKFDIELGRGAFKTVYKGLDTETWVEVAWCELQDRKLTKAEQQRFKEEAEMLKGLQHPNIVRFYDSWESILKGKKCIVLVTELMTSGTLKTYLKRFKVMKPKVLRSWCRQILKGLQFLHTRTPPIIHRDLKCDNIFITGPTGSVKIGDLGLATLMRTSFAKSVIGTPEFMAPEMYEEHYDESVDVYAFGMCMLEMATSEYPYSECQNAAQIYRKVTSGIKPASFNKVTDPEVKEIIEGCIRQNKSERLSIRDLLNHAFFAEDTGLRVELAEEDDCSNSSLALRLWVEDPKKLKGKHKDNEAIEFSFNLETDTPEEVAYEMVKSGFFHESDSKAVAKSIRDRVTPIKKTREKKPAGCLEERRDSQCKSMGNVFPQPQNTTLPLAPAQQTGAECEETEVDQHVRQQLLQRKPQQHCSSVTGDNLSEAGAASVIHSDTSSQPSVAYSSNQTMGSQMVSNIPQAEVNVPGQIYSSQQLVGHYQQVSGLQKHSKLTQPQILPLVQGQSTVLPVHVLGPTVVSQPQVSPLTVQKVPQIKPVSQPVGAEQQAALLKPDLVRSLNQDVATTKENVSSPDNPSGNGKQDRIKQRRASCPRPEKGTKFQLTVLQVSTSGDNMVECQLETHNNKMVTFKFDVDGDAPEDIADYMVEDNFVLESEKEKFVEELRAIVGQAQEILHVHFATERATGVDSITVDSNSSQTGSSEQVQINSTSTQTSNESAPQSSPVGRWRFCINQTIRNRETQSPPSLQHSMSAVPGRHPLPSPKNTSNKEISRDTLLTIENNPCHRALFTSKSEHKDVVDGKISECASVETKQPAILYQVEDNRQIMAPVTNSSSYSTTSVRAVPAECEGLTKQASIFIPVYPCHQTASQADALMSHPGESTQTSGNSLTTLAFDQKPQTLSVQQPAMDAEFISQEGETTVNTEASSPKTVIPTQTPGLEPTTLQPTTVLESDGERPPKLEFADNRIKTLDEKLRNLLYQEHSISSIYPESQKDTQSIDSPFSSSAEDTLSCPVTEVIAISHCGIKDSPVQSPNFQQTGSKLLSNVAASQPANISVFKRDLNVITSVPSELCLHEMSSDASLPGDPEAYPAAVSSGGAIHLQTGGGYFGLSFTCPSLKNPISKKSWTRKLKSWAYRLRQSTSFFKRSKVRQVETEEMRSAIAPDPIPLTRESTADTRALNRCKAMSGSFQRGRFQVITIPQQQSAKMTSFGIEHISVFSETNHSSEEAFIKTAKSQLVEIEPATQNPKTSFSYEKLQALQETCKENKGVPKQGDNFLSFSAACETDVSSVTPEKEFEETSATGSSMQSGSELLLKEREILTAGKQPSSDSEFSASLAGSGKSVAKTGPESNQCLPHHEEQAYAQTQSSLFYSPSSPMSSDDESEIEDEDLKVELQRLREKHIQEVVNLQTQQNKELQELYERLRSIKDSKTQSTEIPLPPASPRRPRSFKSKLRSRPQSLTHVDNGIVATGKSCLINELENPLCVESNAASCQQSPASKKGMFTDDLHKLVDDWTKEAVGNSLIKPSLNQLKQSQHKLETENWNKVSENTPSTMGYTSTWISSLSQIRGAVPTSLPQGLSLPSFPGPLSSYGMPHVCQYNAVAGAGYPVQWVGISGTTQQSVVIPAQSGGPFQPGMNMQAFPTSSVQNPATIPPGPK

Row | Sequence | % activity (LIMK1(h)) [%] | % activity (EphA1(h)) [%] | % activity (MSK1(h)) [%] | % activity (EphA4(h)) [%] | % activity (PKCα(h)) [%] | % activity (CSK(h)) [%] | % activity (AMPKα2(h)) [%] | % activity (PKCδ(h)) [%] | % activity (Src(1-530)(h)) [%] | % activity (PKBγ(h)) [%] | % activity (PDGFRα(V561D)(h)) [%] | % activity (CDK2/cyclinA(h)) [%] | % activity (EGFR(T790M, L858R)(h)) [%] | % activity (WNK3(h)) [%] | % activity (NEK2(h)) [%] | % activity (PAK5(h)) [%] | % activity (IRR(h)) [%] | % activity (Flt3(D835Y)(h)) [%] | % activity (Fgr(h)) [%]
1 | FAKLAARLYRKALARQLGVAA [MMI-0300] | 88 | 73 | 32 | 88 | 89 | 49 | 54 | 101 | 23 | 20 | 82 | 86 | 85 | 77 | 78 | 110 | 8 | 80 | 60
2 | HRRIKAWLKKIKALARQLGVAA (Mammal) [MMI-0500] | 87 | 40 | 8 | 48 | 3 | 2 | 9 | 61 | 21 | 20 | 146 | 87 | 53 | 9 | 0 | 125 | 10 | 65 | 
3 | KAFAKLAARLYRKALARQLGVAA [MMI-0400] | 92 | 61 | 28 | 65 | 86 | 16 | 58 | 90 | 19 | 41 | 100 | 92 | 78 | 74 | 61 |  | 8 | 71 | 47
4 | YARAAARQARAKALARQLGVAA [MMI-0100] |  |  |  | 110 |  |  |  |  |  |  |  |  |  | 100 |  |  | 85 | 120 | 
5 | YARAAARQARAKALNRQLGVA (Mammal) [MMI-0200] |  |  | 50 | 127 | 100 | 33 | 88 | 101 | 75 |  |  |  | 108 | 97 | 97 | 100 | 69 |  | 71
